Tests used:
[1] = system: NPC1-deficient, NPC2-deficient, apparently normal, and U18666A-treated normal cells; test: GC/MS measurement of total free cholesterol; assay type: cell-based, human; details: normal cells treated with 1 μM U18666A
Protocol: FIGS. […]. Charts showing GC/MS measurement of cyclodextrin effects on total free cholesterol levels in NPC1-deficient, NPC2-deficient, apparently normal, and U18666A-treated normal cells. […] Cells were treated with 0.9 mM MβCD or HPβCD for 1 day in growth medium. At the end of the experiment, cellular lipids were extracted and analyzed by GC/MS. Data represent averages±SEM of two independent experiments normalized to control average value for each experiment.

[2] = system: U18666A-treated GM05659 cells; test: LSO filipin assay in U18666A-treated apparently normal fibroblasts; details: GM05659 treated with various concentrations of U18666A (FIG. 14A)
Protocol: Cells were plated in 384-well assay plates at a density to produce ≈80-90% confluency by experiment completion and treated with U18666A at indicated concentrations for 24 hour before addition of various concentrations of either MβCD or HPβCD for another 24 hours, during which indicated U18666A levels were maintained. At the end of the experiment, cells were fixed with 1% PFA and stained with 50 μg/mL filipin. Images were acquired using an ImageXpressMICRO imaging system with a 10× objective. […] (A) Cholesterol accumulation, as measured by the LSO filipin assay, at different concentrations of U18666A. MβCD (B) and HPβCD (C) LSO filipin dose-response curves at three different U18666A concentrations. […] Data represent averages±SEM of two independent experiments (n=12 for control and n=6 for treated, where n is total number of wells per condition used for quantification).

WT Fbs (GM05659) [3] = test: rhASM, LSO filipin quantification in wild-type fibroblasts; assay type: cell-based, human; details: all doses of rhASM tested (0, 0.2, 1.8 μg/mL)
Protocol: (§1) FIG. 29 A,B. Decreased LSO cholesterol accumulation and increased acid SMase activity are achieved in NPC1 human fibroblasts by increasing amounts of rhASM. WT (GM5659) and NPC (GM03123) Fbs were incubated with 0, 0.2 and 1.8 μg/mL rhASM for 24 hours. To remove surface-bound label, the cells were further incubated for 15 minutes with growth medium without the enzyme. The cells were washed thoroughly with PBS and either lysed and assayed for acid SMase activity (A) or fixed and stained with filipin for imaging and quantification (B). Each data point in plot (A) is representative of three wells in an experiment, p<0.05. Plot (B) represents LSO ratios normalized to the untreated NPC Fb […] values (average of 16-20 images from two independent experiments±SEM), p<0.005.
Cells were plated onto poly-d-lysine-coated 35-mm coverslip dishes in a medium containing 10% FBS. […]
Images were analyzed using Metamorph (version 7.0 r4) image analysis software from Molecular Devices (MDS Analytical Technologies). […] The average filipin and LSO ratio was calculated as described previously (Pipalia 2006). The LSO ratio was calculated based on low-thresholded region and high-thresholded intensities in the filipin image as described previously (Pipalia 2006).

NPC (GM03123) Fbs [4] = test: rhASM enzyme replacement, LSO filipin quantification in NPC fibroblasts; assay type: cell-based, human
Protocol: FIGS. 27 A-C. Graph showing the effect of SMase restoration on human NPC1 cells (exogenous acid SMase decreases cholesterol accumulation in LSOs in human NPC fibroblasts). Parallel sets of human WT (GM05659) and NPC (GM03123) Fbs were incubated in medium alone or, in the case of the NPC fibroblasts, medium containing 3 μg/mL recombinant human acid SMase (rhASM). Two days later, the cells were washed thoroughly with PBS and either lysed and assayed for acid SMase activity (A), or fixed and stained with filipin for imaging and quantification (B). […] Scale bar, 15 μm. The quantified data in the bar graph represent LSO ratios normalized to the WT Fb values (average of 60-66 images from three independent experiments±SEM). C) Another human NPC Fbs (GM18453) was incubated with 3 μg/mL rhASM for 24 h, unlike 48 h in NPC1 (GM03123). Quantified data shown in bar chart are the normalized LSO ratios (normalized to untreated NPC Fbs) in the presence and absence of recombinant enzyme. Data represents an average from two independent experiments and 30-36 images±SEM, p<0.0001.
as §1
(§2) Normal (GM05659) and NPC1 human fibroblasts (GM03123) were incubated in a medium containing 3 μg/mL recombinant human acid SMase (rhASM). Two days later, the cells were washed thoroughly with PBS, and either lysed and assayed for acid SMase activity or fixed and stained with filipin for imaging and quantification. NPC1 human fibroblasts GM18453 were treated with 3 μg/mL rhASM for 24 h before fixing, staining with filipin, imaging and quantifying.
Cells were plated onto poly-d-lysine-coated 35-mm coverslip dishes in a medium containing 10% FBS. After 1-2 days of growth, the cell monolayers were washed three times with PBS and then fixed with 3% paraformaldehyde in PBS for 20 minutes at room temperature, followed by three more washes with PBS. To detect free cholesterol, filipin was added to the fixed cells (50 μg/mL in PBS) for 45 minutes at room temperature. Finally, the cells were washed three times with PBS, and images were acquired immediately after labeling.
Images were analyzed using Metamorph (version 7.0 r4) image analysis software from Molecular Devices (MDS Analytical Technologies). All images were corrected for background before analysis. The average filipin and LSO ratio was calculated as described previously (Pipalia 2006). The LSO ratio was calculated based on low-thresholded region and high-thresholded intensities in the filipin image as described previously (Pipalia 2006).

NPC (GM03123) Fbs [5] = test: Acid SMase activity assay after rhASM, NPC fibroblasts; assay type: cell-based, human
Protocol: as §1
Cell extracts were prepared by scraping cells into ice-cold 250 mM sucrose, followed by sonication on ice twice for 10 seconds each using a Branson Sonifier 450. […]
as §2

WT Fbs (GM05659) [6] = test: Acid SMase activity assay after rhASM, wild-type fibroblasts; assay type: cell-based, human; details: 24 hours
Protocol: as §1
Cell extracts were prepared by scraping cells into ice-cold 250 mM sucrose, followed by sonication on ice twice for 10 seconds each using a Branson Sonifier 450. To prepare the substrate, solvent from 0.1 μCi [cholinemethyl-^14C] […] The assay solution, which was added to 1.5-mL microcentrifuge tubes on ice, consisted of 50 μL assay buffer, 20 μL substrate and 20 μL of cell extract. After incubation for 60 minutes at 37° C., the reaction was terminated by adding 125 μL of chloroform:methanol (2:1, v/v). The assay tubes were vortexed for 1 minute and then centrifuged 5000×g for 5 minutes at 4° C. […]

[7] = system: WT (GM05659) and NPC (GM03123) human fibroblasts; test: Sub-cellular localization and uptake of Alexa555-conjugated rhASM; assay type: cell-based; details: data not shown
Protocol: WT (GM5659) and NPC (GM03123) Fbs were incubated with or without 3 μg/mL Alexa555-conjugated rhASM for 24 hours. To remove surface-bound label, the cells were further incubated for 15 min with a growth medium without the enzyme. Finally, the cells were washed with PBS, fixed with 1.5% PFA, and stained with filipin for imaging and quantification. […] Color overlays for filipin (green) and rhASM-Alexa555 (red) are shown in panels (C, F and I). The images in the inset are the zoomed color overlays of the region marked in (C, F and I). Scale bar=10 μm.
For identifying the localization of rhASM in the cells, recombinant enzyme was conjugated with Alexa555 (Invitrogen) according to the manufacturer's protocol. Normal (GM05659) and NPC1 human fibroblasts (GM03123) were incubated in a medium containing 3 μg/mL Alexa555-rhASM for 24 h prior to fixing and staining with filipin. Images were acquired using standard UV and TRITC filters for filipin and Alexa555-labeled rhASM, and quantified.
To ascertain whether exogenously added rhASM was localized and processed in late endosomal organelles, WT (GM05659) and NPC (GM03123) human fibroblasts were incubated for 24 hours in the absence or presence of 3 μg/mL of Alexa555-labeled rhASM. […] The cells were then washed, fixed and stained with filipin for imaging and quantification. […]

Molecule: CCN(CC)CCO[C@H]1CC[C@@]2(C)C(=CC[C@@H]3[C@@H]2CC[C@]2(C)C(=O)CC[C@@H]32)C1 [U18666A, 3-β-[(2-diethyl-amino)ethoxy]androst-5-en-17-one]
- free cholesterol per μg cell protein [1]: 0.074 ± 0.006 pmol/µg
- extent of cholesterol accumulation in LSOs [2]: dose dependent

B1: rhASM: Recombinant human acid SMase prepared from transfected CHO cells (protein, UniProt P17405 47-631, looked up)
Sphingomyelin …: LALSDSRVLWAPAEAHPLSPQGHPARLHRIVPRLRDVFGWGNLTCPICKGLFTAINLGLKKEPNVARVGSVAIKLCNLLKIAPPAVCQSIVHLFEDDMVEVWRRSVLSPSEACGLLLGSTCGHWDIFSSWNISLPTVPKPPPKPPSPPAPGAPVSRILFLTDLHWDHDYLEGTDPDCADPLCCRRGSGLPPASRPGAGYWGEYSKCDLPLRTLESLLSGLGPAGPFDMVYWTGDIPAHDVWHQTRQDQLRALTTVTALVRKFLGPVPVYPAVGNHESTPVNSFPPPFIEGNHSSRWLYEAMAKAWEPWLPAEALRTLRIGGFYALSPYPGLRLISLNMNFCSRENFWLLINSTDPAGQLQWLVGELQAAEDRGDKVHIIGHIPPGHCLKSWSWNYYRIVARYENTLAAQFFGHTHVDEFEVFYDEETLSRPLAVAFLAPSATTYIGLNPGYRVYQIDGNYSGSSHVVLDHETYILNLTQANIPGAIPHWQLLYRARETYGLPNTLPTAWHNLVYRMRGDMQLFQTFWFLYHKGHPPSEPCGTPCRLATLCAQLSARADSPALCRHLMPDGSLPEAQSLWPRPLFC
- LSO filipin staining (WT Fbs (GM05659) [3]): remained low and constant
- decrease in LSO filipin intensity (NPC (GM03123) Fbs [4]; 0.2 μg/mL rhASM, 24 hours): ~20%
- reduction of LSO filipin intensity (NPC (GM03123) Fbs [4]; 1.8 μg/mL rhASM, 24 hours): ~60%
- decrease in LSO filipin intensity (NPC (GM03123) Fbs [4]; 3 μg/mL rhASM (FIG. 27)): 65-70%
- LSO filipin fluorescence (NPC (GM03123) Fbs [4]; 3 μg/mL rhASM, two days (FIG. 27B)): dramatically decreased LSO filipin fluorescence
- residual cholesterol accumulation (NPC (GM03123) Fbs [4]; excess acid SMase, NPC1 cells): 25-30%
- acid SMase activity (NPC (GM03123) Fbs [5]; 0.2 μg/mL rhASM, 24 hours): increased acid SMase activity significantly
- defect in acid SMase activity (NPC (GM03123) Fbs [5]; 3 μg/mL rhASM, two days (FIG. 27A)): corrected
- acid SMase activity (WT Fbs (GM05659) [6]; 0.2 μg/mL rhASM): increased slightly
- acid SMase activity (WT Fbs (GM05659) [6]; 1.8 μg/mL rhASM): did not increase further

B2: rhASM-Alexa555: recombinant enzyme conjugated with Alexa555 (conjugate, UniProt P17405 47-631, looked up)
Sphingomyelin …: B1 Sphingomyelin …
modifications: Alexa555 label
- effect of Alexa555 conjugation on enzyme activity [7]: did not affect its activity
